Consider 16 molecules from patent publication US20220064272A1 (TAUC3 BIOLOGICS, published 2022).

For orientation: EC50 means the midpoint of the concentration-response curve. As a reminder, the Kd is the free concentration of one partner at which half of the binding sites on the other are occupied at equilibrium, for simple one-to-one binding. Usually koff stands for a measure of how fast the partners let go of each other. What is called kon is a measure of how fast the partners come together. In general, EC50 (read off the curve) refers to the concentration needed to bring the measured effect to its halfway point.

Where a chain is given by its changes, count along the chain named. Where “and” joins values, the source holds several entries; their conditions need not be identical. Equal entries are not always repeated.

In assay [1] the target is T1, TauC3 (C-terminally truncated tau fragment ending at aspartate 421 of htau40) (human, UniProt P10636 1-738).
T1 construct: Generated and purified by Genscript; also called Human TauC3; recombinant TauC3 protein
The assay is described as follows: binding ELISA, TauC3 coated; FIG. 16 ELISA. The procedure, abridged:
(§1)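 EC50 values come from antibody concentration-response curves in a binding ELISA on coated TauC3 antigen. The chimeric or humanized IgG4κ antibodies were produced in ExpiCHO cells, and binding was measured as absorbance at 650 nm.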

The target of assay [2] is T1, TauC3 (C-terminally truncated tau …). The assay is described as follows: binding ELISA on coated TauC3, OD650. An outline of the steps:
as §1
(In general: ELISA stands for enzyme-linked immunosorbent assay.)

For assay [3] the target is unchanged. The assay can be described thus: binding ELISA on coated TauC3, OD650; left table (HC variants). An outline of the steps:
as §1

Assay [4] concerns the target T2, full length Tau (2N4R, htau40) (human, UniProt P10636 1-758).
T2 construct: Generated and purified by Genscript; also called FL Tau; FLT
The assay can be described thus: Octet, antibody on Protein G sensor, FL Tau in solution. An outline of the steps:
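Antibody loaded on Protein G biosensors was tested by Bio-Layer Interferometry (OctetRed96) for binding to purified full-length tau in solution. The tau was made and purified by Genscript. Full-length tau was applied at 500 nM. The result is the binding signal response in nm.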

Assay [5] addresses T1, TauC3 (C-terminally truncated tau …). The assay can be described thus: SPR (Biacore) kinetics, TauC3 amine-coupled on CM5, 1:1 global fit. An outline of the steps:
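Each purified antibody was injected at a series of concentrations over a CM5 chip carrying amine-coupled purified antigen, with readout by Biacore surface plasmon resonance. A global fit gave Kd together with the association and dissociation rates. The fit model was 1:1.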

Assay [6] has the same target. The assay can be described thus: binding ELISA on coated TauC3, OD650; right table (HM variants). The procedure, abridged:
as §1

Assay [7] shares this target. The assay can be described thus: Biacore kinetics, TauC3 amine-coupled on CM5, antibody series, 1:1 global fit. The text has this:
To determine the affinity of the binding interactions, a biacore kinetic assay was developed which involved immobilizing TauC3 on a CM5 chip via amine coupling and injecting a concentration series of the respective antibody over it.

Assay [8] shares this target. The assay can be described thus: Biacore off-rate ranking, TauC3 amine-coupled on CM5, one antibody concentration; one-phase exponential decay fit. The protocol:
(§2) To further evaluate the binding data observed on the Octet, an off-rate ranking experiment was performed on the Biacore 200 instrument. Biacore offers greater selectivity than the Octet and facilitated the immobilization of TauC3 onto a CM5 chip via amine coupling which stabilizes the antigen. This produces higher quality data with stable baselines and good reproducible responses. Once TauC3 is immobilized, one concentration (5 nM) of antibody is added, followed by a dissociation and regeneration step (Section 8.20). The off-rates were fitted using a two-phase decay model (FIG. 25B) or a one phase decay fitting only the second off-rate (FIG. 25A). The candidates were then ranked based on the off-rates obtained using the fits and compared. The data agreed with the Octet results (albeit with a different ranking order), highlighting Tau01 HMKM, HMKO, HMKP, HMKN and HMKE as the humanized variants with the slowest off-rates. The lack of binding of FL Tau to chimeric and a humanized candidate was also confirmed by Biacore by loading the antibody onto a Protein G chip and adding 250 nM FL Tau.
(In general: Surface plasmon resonance follows binding to a sensor surface in real time, without labels.)

Assay [9] has the same target. The assay can be described thus: Biacore off-rate ranking, TauC3 amine-coupled on CM5, one antibody concentration; two-phase decay fit, slow phase. Also on record: unit not given here. How it is done:
as §2

Assay [10] has the same target. The assay is described as follows: binding ELISA on TauC3 after 21 days at 37 C in PBS or mouse, human, cynomolgus serum, with non-incubated control. How it is done:
Purified samples of the chimeric and humanized antibodies were incubated in mouse, human and cynomolgus serum for 21 days. The binding of the Tau01 HMKE, HMKM, HMKN, HMKO, HMKP candidate antibodies which had been incubated in the 3 different serums were compared with an antibody incubated in PBS and a 4° C. positive control sample by binding ELISA to TauC3 (FIG. 37). The Tau01 HMKE, HMKM, HMKN, HMKO, HMKP candidate antibodies retained their binding capability after being incubated in mouse, human and cynomolgus serum.

Assay [11] has the same target. The assay can be described thus: binding ELISA on coated TauC3, OD650. The procedure, abridged: as §1
The source holds these as a separate data set.

Assay [12] shares this target. The assay can be described thus: binding ELISA on coated TauC3, OD650. An outline of the steps:
as §1
The source holds these as a separate data set.

For assay [13] the target is unchanged. The assay is described as follows: binding ELISA on coated TauC3, OD650. An outline of the steps: as §1
This is another data set of the same source.

The target is the same in assay [14]. The assay can be described thus: binding ELISA on coated TauC3, OD650. The procedure, abridged: as §1
The source holds these as a separate data set.

T1 sequence (P10636 other isoform, or with tags, fused parts or gaps): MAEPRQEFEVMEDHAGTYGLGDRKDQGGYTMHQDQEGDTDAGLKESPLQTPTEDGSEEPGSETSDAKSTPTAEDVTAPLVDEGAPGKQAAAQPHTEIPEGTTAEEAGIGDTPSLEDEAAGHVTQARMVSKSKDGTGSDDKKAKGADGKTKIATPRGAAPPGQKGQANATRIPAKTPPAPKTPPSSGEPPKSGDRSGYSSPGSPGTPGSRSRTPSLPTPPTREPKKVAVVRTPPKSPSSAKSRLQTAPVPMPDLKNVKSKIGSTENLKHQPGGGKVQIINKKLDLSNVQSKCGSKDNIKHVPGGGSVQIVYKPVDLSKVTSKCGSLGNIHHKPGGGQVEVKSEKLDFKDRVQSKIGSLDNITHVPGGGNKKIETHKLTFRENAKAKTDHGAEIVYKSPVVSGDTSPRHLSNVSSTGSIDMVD
T2 sequence (P10636 other isoform, or with tags, fused parts or gaps limits assumed): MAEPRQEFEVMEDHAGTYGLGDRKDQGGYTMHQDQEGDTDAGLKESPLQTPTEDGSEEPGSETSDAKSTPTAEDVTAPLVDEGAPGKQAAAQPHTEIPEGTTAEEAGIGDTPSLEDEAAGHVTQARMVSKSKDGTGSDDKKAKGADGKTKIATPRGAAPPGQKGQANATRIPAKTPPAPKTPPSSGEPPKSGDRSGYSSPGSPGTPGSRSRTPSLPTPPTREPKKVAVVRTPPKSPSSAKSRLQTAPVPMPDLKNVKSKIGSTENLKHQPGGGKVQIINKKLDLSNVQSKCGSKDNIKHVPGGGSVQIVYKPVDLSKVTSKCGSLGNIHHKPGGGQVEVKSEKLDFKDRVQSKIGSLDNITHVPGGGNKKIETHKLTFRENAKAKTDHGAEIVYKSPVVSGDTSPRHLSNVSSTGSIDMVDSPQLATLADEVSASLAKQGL

B1: Tau01 HBKC (antibody, V domains shown)
VH: EVQVVESGGGLVQPGGSLKLSCAASGFTFNTYAMNWVRQASGKGLEWVARIRSKSNNYATYYADSVKGRFTISRDDSKSMVYLQMDSLKTEDTAVYYCVGGGDFWGQGTLVTVSS
VL: DIQMTQSPSSLSASVGDRVTITCRASQEISVYLSWFQQKPGKAPKRLIYGAFKLQSGVPSRFSGSRSGTEYTLTISSLQPEDFATYYCLQYVRYPWTFGGGTKVEIK
notes: human IgG4 kappa (HuG4K)
Regarding B1, the EC50 is 840 pM in assay [1] and 990 pM in [2].

B2: Tau01 HCKC (antibody, V domains shown)
VH: B1 VH with E1L, V4L, A49G, D64A, V81A
VL: B1 VL
notes: human IgG4 kappa (HuG4K)
B2: the values for the EC50 in assay [2] and in assay [3] were 1340 pM and 1580 pM, respectively.

B3: Tau01 HMKO HuG4k (antibody, V domains shown)
VH: B1 VH with E1L, V4L, D64A, V81A
VL: B1 VL with S34G, F36Y, K53S
notes: human IgG4 kappa (HuG4K)
With B3, the binding result in assay [4] was “no binding”. In assay [5], this molecule gave a Kd of 59 pM, a koff of 0.00352 s⁻¹ and an on-rate (kon) of 5.93e+07 M⁻¹ s⁻¹. This molecule came in with an EC50 in [6] of 582 pM. Also, in assay [7], the Kd amounted to 59.4 pM and the koff was found to be 0.00352 s⁻¹. In assay [8], this molecule came in with a koff of 0.000473 s⁻¹. The molecule further yielded a Kslow in [9] of 0.000349. The “EC50 (read off the curve)” value in assay [10] was around 700 pM.

B4: Tau01 HMKN HuG4k (antibody, V domains shown)
VH: B1 VH with E1L, V4L, D64A, V81A
VL: B1 VL with S34G, F36Y, K53T
notes: human IgG4 kappa (HuG4K)
On to B4, for which the binding result in assay [4] is listed as “no binding”. In assay [5], this molecule had a Kd of 25 pM, a koff of 0.0015 s⁻¹ and a kon of 6.03e+07 M⁻¹ s⁻¹. The molecule further came in with an EC50 in assay [6] of 624 pM. Besides, in assay [7], binding was characterised by a dissociation constant (Kd) of 24.9 pM. Further, the koff in assay [8] stood at 0.000878 s⁻¹. This molecule gave a Kslow in assay [9] of 0.000823. The “EC50 (read off the curve)” value in assay [10] was around 500 pM.

B5: Tau01 HOKJ (antibody, V domains shown)
VH: B1 VH with E1L, D64A, V81A
VL: B1 VL with S34G, F36Y, K53S, Y71F
notes: human IgG4 kappa (HuG4K)
B5 had an EC50 in assay [11] of 556 pM.

B6: Tau01 HOKI (antibody, V domains shown)
VH: B1 VH with E1L, D64A, V81A
VL: B1 VL with S34G, F36Y
notes: human IgG4 kappa (HuG4K)
B6 registered an EC50 in assay [11] of 482 pM.

B7: Tau01 HNKJ (antibody, V domains shown)
VH: B1 VH with E1L, A49G, D64A, V81A
VL: B1 VL with S34G, F36Y, K53S, Y71F
notes: human IgG4 kappa (HuG4K)
As to B7, the EC50 in assay [12] came to 2560 pM.

B8: Tau01 HMKP HuG4k (antibody, V domains shown)
VH: B1 VH with E1L, V4L, D64A, V81A
VL: B1 VL with S34G
notes: human IgG4 kappa (HuG4K); Lead candidate
Turning to B8, in [4], the binding result was “no binding”. In assay [5], this molecule came in with a Kd of 13 pM, a koff of 0.00186 s⁻¹ and a kon of 1.43e+08 M⁻¹ s⁻¹. In addition, in assay [6], it took 499 pM to reach a half-maximal effect (EC50). In addition, in [7], the koff was 0.00186 s⁻¹ and the kon stood at 1.43e+08 M⁻¹ s⁻¹. Besides, the koff in assay [8] came to 0.000811 s⁻¹. The molecule further yielded a Kslow in [9] of 0.000777. For the same molecule, the “EC50 (read off the curve)” value in [10] is around 600 pM.

B9: Tau01 HCKA (antibody, V domains shown)
VH: B1 VH with E1L, V4L, A49G, D64A, V81A
VL: B1 VL with S34G, F36Y, Y71F
notes: human IgG4 kappa (HuG4K)
B9: the EC50 in assay [2] amounted to 6450 pM; in assay [13] it was 959 pM; in assay [3], 1520 pM.

B10: Tau01 HNKG (antibody, V domains shown)
VH: B1 VH with E1L, A49G, D64A, V81A
VL: B1 VL with S34G, F36Y, K53T, Y71F
notes: human IgG4 kappa (HuG4K)
The molecule B10 showed an EC50 in [12] of 1080 pM.

B11: Tau01 HNKI (antibody, V domains shown)
VH: B1 VH with E1L, A49G, D64A, V81A
VL: B1 VL with S34G, F36Y
notes: human IgG4 kappa (HuG4K)
In assay [12], B11 registered an EC50 of 765 pM.

B12: Tau01 HOKA (antibody, V domains shown)
VH: B1 VH with E1L, D64A, V81A
VL: B1 VL with S34G, F36Y, Y71F
notes: human IgG4 kappa (HuG4K)
Take B12: the EC50 in [11] was 389 pM.

B13: Tau01 HOKB (antibody, V domains shown)
VH: B1 VH with E1L, D64A, V81A
VL: B1 VL with P44I, K53T, T69S
notes: human IgG4 kappa (HuG4K)
As to B13, it took 510 pM to reach a half-maximal effect in assay [11] (EC50).

B14: Tau01 HFKB (antibody, V domains shown)
VH: B1 VH with E1L, V4L, A49G, Y61A, D64A, S79N, M80T, V81A
VL: B1 VL with P44I, K53T, T69S
notes: human IgG4 kappa (HuG4K)
Regarding B14, the EC50 in [14] amounted to 2930 pM.

B15: Tau01 HOKG (antibody, V domains shown)
VH: B1 VH with E1L, D64A, V81A
VL: B1 VL with S34G, F36Y, K53T, Y71F
notes: human IgG4 kappa (HuG4K)
B15: it took 604 pM to reach a half-maximal effect in assay [11] (EC50).

B16: Tau01 HMKE HuG4k (antibody, V domains shown)
VH: B1 VH with E1L, V4L, D64A, V81A
VL: B1 VL with S34G, Y71F
notes: human IgG4 kappa (HuG4K); also called KMKE
For B16, in assay [4], the binding result was “no binding”. In assay [5], this molecule showed a Kd of 20 pM, a koff of 0.00283 s⁻¹ and a kon of 1.41e+08 M⁻¹ s⁻¹. Further, in assay [6], the EC50 was 437 pM and 532 pM. In assay [7], this molecule had a Kd of 20.1 pM and an off-rate (koff) of 0.00283 s⁻¹. Also, in [8], the koff stood at 0.000953 s⁻¹. Moreover, the Kslow in assay [9] was 0.000883. For the same molecule, in [10], the “EC50 (read off the curve)” value is around 800 pM.
